Data: publication PMC11655885, “Structural mechanism of CB1R binding to peripheral and biased inverse agonists” (Nature Communications, 2024)

Assays:
[1] = target: CB1R-5M-PGS (Homo sapiens, UniProt P21554); assay: Analytical gel filtration test of CNB36 binding to CB1R-5M-PGS; conditions: purified CNB36
Procedure: For binding tests, 10 μM purified CNB36 was incubated for 1 hr with purified PGS or CB1R-5M-PGS (5 μM). The complex was then centrifuged at 21,130 × g for 15 min at 4 °C to remove large aggregates, and the supernatant was run on an analytical-grade Superdex 200 10/300 Increase column at 0.5 mL/min in CB1 gel filtration buffer. The presence or absence of binding of CNB36 to CB1R-5M-PGS or to PGS alone was assessed by SDS-PAGE analysis of peak fractions.

[2] = test system: CB1R-5M-PGS over GPR55-PGS; assay: Analytical flow cytometry of yeast-displayed CNB36, CB1R-5M-PGS versus GPR55-PGS; type: binding
Procedure: Supplementary Figure 1. (A-H) Sel ecti on and bi ochemi cal characteri zati on of CNB36
(A) Overall strategy for nanobody selection and sequence of CNB36.
(B) FA C S sort of a yeast display nanobody library against Alexa647-labeled CB1-PGS […]
round of selection that gave rise to CNB36. The indicated gat e (P5) contains the highly fluorescent CB1-PGS single posit ive populat ion, which was then analyzed by sequencing of individual clones.
(C) Binding of CNB36 to CB1-PGS, read out by size exclusion chromatography and SDS-PA G E . […]
(D) Assessment of binding of CNB36 to PGS alone, as in C.
(E) Analytical flow cytometry comparing binding of CNB36-expressing yeast t o Alexa647-labeled CB1-PGS (Y-axis) versus FI TC-labeled GPR55-PGS (X-axis).
(F) Final sample used for cryo-EM grid preparat ion by size excusion chromatography and […]

CB1R-5M-PGS, sequence (P21554 with tags, fused parts or gaps): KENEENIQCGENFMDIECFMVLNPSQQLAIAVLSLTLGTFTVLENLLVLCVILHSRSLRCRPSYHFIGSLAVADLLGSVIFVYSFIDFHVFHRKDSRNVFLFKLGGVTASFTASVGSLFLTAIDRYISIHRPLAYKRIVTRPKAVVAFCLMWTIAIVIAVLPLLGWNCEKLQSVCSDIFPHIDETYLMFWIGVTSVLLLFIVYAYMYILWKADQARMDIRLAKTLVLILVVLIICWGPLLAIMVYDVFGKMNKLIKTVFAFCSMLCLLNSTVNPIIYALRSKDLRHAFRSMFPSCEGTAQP

B1: CNB36: nanobody selected from a yeast display library against the CB1R-5M-PGS fusion protein (antibody, V domains shown)
VH: QVQLQESGGGLVQAGGSLRLSCAASGTIFGPDVMGWYRQAPGKERELVAGISNGANTYYADSVKGRFTISRDNAKNTVYLQMNSLKPEDTAVYYCAAEVLDYTFAYLYHAYWGQGTQVTVSS
Question: With B1 as the molecule, how does the “complex formation with CB1R-5M-PGS by size exclusion chromatography” value [1] read?
Answer: formed a stable complex

Question: What about the “specificity for purified CB1R-5M-PGS over GPR55-PGS by FACS” value [2] of the same molecule?
Answer: high specificity
